According to publication PMC5324060, “Evolutionary, computational, and biochemical studies of the salicylaldehyde dehydrogenases in the naphthalene degradation pathway” (Scientific Reports, 2017):
Values belong to the molecule of their own block, whether it stands above or below them.

Experiments:
SALDan = SALDan (Alteromonas naphthalenivorans, UniProt F5Z5S7); test: Kinetics assay of wild-type recombinant SALDan (NADH appearance at 340 nm); type: biochemical; settings: wild-type; for Ki: “—” means not observed, read-out: App Ki (substrate inhibition)
SALDan, sequence (F5Z5S7 entry or part of it): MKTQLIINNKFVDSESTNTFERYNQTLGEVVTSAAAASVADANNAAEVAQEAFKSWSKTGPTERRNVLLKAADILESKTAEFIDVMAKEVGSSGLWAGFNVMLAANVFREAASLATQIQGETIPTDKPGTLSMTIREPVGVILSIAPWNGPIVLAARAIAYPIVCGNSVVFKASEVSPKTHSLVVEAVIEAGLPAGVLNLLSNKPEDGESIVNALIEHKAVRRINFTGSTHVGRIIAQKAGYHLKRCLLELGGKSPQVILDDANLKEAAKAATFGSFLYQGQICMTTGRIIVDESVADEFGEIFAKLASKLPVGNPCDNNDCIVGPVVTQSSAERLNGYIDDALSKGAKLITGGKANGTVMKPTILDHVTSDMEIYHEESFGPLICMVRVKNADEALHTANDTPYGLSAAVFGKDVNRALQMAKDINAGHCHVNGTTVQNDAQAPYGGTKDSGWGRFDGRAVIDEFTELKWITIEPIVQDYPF
Experimental: (§1) The activity of the purified proteins was determined using SAL as a substrate. A reaction volume of 500 μL was prepared in a microfuge tube containing purified SALDan (0.1 μM), SAL (100 μM), and NAD^+ (100 μM) dissolved in 50 mM HEPES (pH 7.5) containing 150 mM NaCl. The SALDan activity was monitored as the rate of appearance of NADH at 340 nm spectrophotometrically. The specific activity of the enzyme (units.mg^−1.min^−1) was expressed as the amount of enzyme required to produce 1 μM of NADH under the assay conditions. The influence of pH on the activity was determined using the protocol described above, with the exception of replacing the […] buffer with 50 mM sodium acetate (pH 3.0–5.0), 50 mM 2-(N-morpholino)ethanesulfonic acid (pH 5.0–7.5), 50 mM HEPES (pH 8.0–8.5), 50 mM glycine (pH 9.0–10.0), or 50 mM sodium phosphate (pH 11.0)[52]. All assays were performed at the optimal temperature. To determine the influence of temperature on the enzymatic activity, the reactions were performed at 15, 20, 25, 30, 35, 40, and 45 °C, respectively.
(§2) For kinetic studies of aldehydes, the initial velocities of the enzymatic reactions were examined by varying the concentrations of various aromatic as well as aliphatic aldehydes in the presence of NAD^+ (100 μM) and the enzyme (0.1 μM) under optimal conditions. For substrates that absorb at 340 nm, thus interfering with the calculation of the initial rate, their molar coefficients (ε) were calculated as described previously[64] and are presented in Table S1. The apparent kinetic parameters were calculated using the equation: […]
(§3) The apparent kinetic parameters for NAD^+ were determined at a fixed concentration of SAL (50 μM) and a varying concentration of NAD^+ (0–500 μM). The apparent Km and Vmax values were calculated by using the equation: […]
(§4) All the activity data were determined by three separate experiments with at least three technical replicates.

[1] = substrate: NC(=O)c1ccc[n+]([C@@H]2O[C@H](COP(=O)([O-])OP(=O)(O)OC[C@H]3O[C@@H](n4cnc5c(N)ncnc54)[C@H](O)[C@@H]3O)[C@@H](O)[C@H]2O)c1; test: Kinetics assay of SALDan mutant E175A; type: biochemical, Alteromonas naphthalenivorans; settings: other: E175A mutant; SAL varied at NAD^+ 100 μM; NAD^+ varied at SAL 50 μM
Text: (§5) The primers used for the single amino acid mutant were as follows: N149A, forward primer, 5′-ATAGCACCGTGGGCCGGGCCTATTGTATTA-3′; reverse primer, 5′-TAATACAATAGGCCCGGCCCACGGTGCTAT-3′; V153A, forward primer, 5′-AATGGGCCTATTGTATTAGCGGCTCGG-3′; reverse primer, 5′-CCGAGCCGCTAATACAATAGGCCCATT-3′; E175A, forward primer, 5′-[…]-3′, reverse primer, 5′-GTTGGGACAGTCTTCCAGCCC-3′; E175A, forward primer, 5′-ATGCTCCACCAAATTGGGCAC-3′; reverse primer, 5′-TTTAGGACTTACTTCTGAAGCTTTAAA-3′. The PCR was performed using Pfu polymerase, and the cycling parameters were: 95 °C for 5 min (one cycle), 95 °C for 30 s, and 68 °C for 12 min (12 cycles). After amplification, the PCR mixture was digested with DpnI and then transformed into E. coli BL21(DE3) by electroporation. The mutants were confirmed by DNA sequencing.
as §1, §2, §3, §4

[2] = substrate: O=Cc1ccccc1O; test: Kinetics assay of SALDan mutant E175A; type: biochemical, Alteromonas naphthalenivorans; settings: other: E175A mutant; SAL varied at NAD^+ 100 μM; NAD^+ varied at SAL 50 μM
Text: as §5, §1, §2, §3, §4

[3] = substrate: NC(=O)c1ccc[n+]([C@@H]2O[C@H](COP(=O)([O-])OP(=O)(O)OC[C@H]3O[C@@H](n4cnc5c(N)ncnc54)[C@H](O)[C@@H]3O)[C@@H](O)[C@H]2O)c1; test: Kinetics assay of SALDan mutant N149A; type: biochemical, Alteromonas naphthalenivorans; settings: other: N149A mutant; SAL varied at NAD^+ 100 μM; NAD^+ varied at SAL 50 μM
Text: as §5, §1, §2, §3, §4

[4] = substrate: O=Cc1ccccc1O; test: Kinetics assay of SALDan mutant N149A; type: biochemical, Alteromonas naphthalenivorans; settings: other: N149A mutant; SAL varied at NAD^+ 100 μM; NAD^+ varied at SAL 50 μM
Text: as §5, §1, §2, §3, §4

[5] = substrate: NC(=O)c1ccc[n+]([C@@H]2O[C@H](COP(=O)([O-])OP(=O)(O)OC[C@H]3O[C@@H](n4cnc5c(N)ncnc54)[C@H](O)[C@@H]3O)[C@@H](O)[C@H]2O)c1; test: Kinetics assay of SALDan mutant V153A; type: biochemical, Alteromonas naphthalenivorans; settings: other: V153A mutant; SAL varied at NAD^+ 100 μM; NAD^+ varied at SAL 50 μM
Text: as §5, §1, §2, §3, §4

[6] = substrate: O=Cc1ccccc1O; test: Kinetics assay of SALDan mutant V153A; type: biochemical, Alteromonas naphthalenivorans; settings: other: V153A mutant; SAL varied at NAD^+ 100 μM; NAD^+ varied at SAL 50 μM
Text: as §5, §1, §2, §3, §4

[7] = aldehyde varied at NAD^+ 100 μM, enzyme 0.1 μM, for NAD^+: SAL fixed 50 μM

Molecule: C=O [Formaldehyde]
App Vmax (SALDan; [7]): 3.3 ± 0.7 U/mg | App kcat (SALDan; [7]): 8.6 ± 2.2 s⁻¹ | Km (SALDan; aldehyde varied at NAD^+ 100 μM, enzyme 0.1 μM, for NAD^+: SAL fixed 50 μM, NAD^+ 0–500 μM, read-out: App Km): 12400 ± 1820 µM

Ki (SALDan): 266 ± 35.8 µM
Molecule: O=Cc1ccc([N+](=O)[O-])cc1 [4-Nitrobenzaldehyde]

Ki (SALDan): 124 ± 20.1 µM
Molecule: O=Cc1cccc(Cl)c1 [3-Chlorobenzaldehyde]

B1: SALDan E175A (Alteromonas naphthalenivorans; E175A) (protein)
chain: MKTQLIINNKFVDSESTNTFERYNQTLGEVVTSAAAASVADANNAAEVAQEAFKSWSKTGPTERRNVLLKAADILESKTAEFIDVMAKEVGSSGLWAGFNVMLAANVFREAASLATQIQGETIPTDKPGTLSMTIREPVGVILSIAPWNGPIVLAARAIAYPIVCGNSVVFKASAVSPKTHSLVVEAVIEAGLPAGVLNLLSNKPEDGESIVNALIEHKAVRRINFTGSTHVGRIIAQKAGYHLKRCLLELGGKSPQVILDDANLKEAAKAATFGSFLYQGQICMTTGRIIVDESVADEFGEIFAKLASKLPVGNPCDNNDCIVGPVVTQSSAERLNGYIDDALSKGAKLITGGKANGTVMKPTILDHVTSDMEIYHEESFGPLICMVRVKNADEALHTANDTPYGLSAAVFGKDVNRALQMAKDINAGHCHVNGTTVQNDAQAPYGGTKDSGWGRFDGRAVIDEFTELKWITIEPIVQDYPF
Km [1]: 105.6 ± 10.3 µM | Vmax [1]: 60.6 µmol/min/mg | kcat [1]: 158 ± 17.2 s⁻¹ | kcat/Km [1]: 1.5e+06 ± 400000 M⁻¹ s⁻¹ | Km [2]: 15.1 ± 2.6 µM | Vmax [2]: 32.3 µmol/min/mg | kcat [2]: 82.2 ± 10.1 s⁻¹ | kcat/Km [2]: 5.4e+06 ± 900000 M⁻¹ s⁻¹

B2: SALDan N149A (Alteromonas naphthalenivorans; N149A) (protein)
chain: MKTQLIINNKFVDSESTNTFERYNQTLGEVVTSAAAASVADANNAAEVAQEAFKSWSKTGPTERRNVLLKAADILESKTAEFIDVMAKEVGSSGLWAGFNVMLAANVFREAASLATQIQGETIPTDKPGTLSMTIREPVGVILSIAPWAGPIVLAARAIAYPIVCGNSVVFKASEVSPKTHSLVVEAVIEAGLPAGVLNLLSNKPEDGESIVNALIEHKAVRRINFTGSTHVGRIIAQKAGYHLKRCLLELGGKSPQVILDDANLKEAAKAATFGSFLYQGQICMTTGRIIVDESVADEFGEIFAKLASKLPVGNPCDNNDCIVGPVVTQSSAERLNGYIDDALSKGAKLITGGKANGTVMKPTILDHVTSDMEIYHEESFGPLICMVRVKNADEALHTANDTPYGLSAAVFGKDVNRALQMAKDINAGHCHVNGTTVQNDAQAPYGGTKDSGWGRFDGRAVIDEFTELKWITIEPIVQDYPF
Km [3]: 52.3 ± 6.1 µM | Vmax [3]: 83.5 µmol/min/mg | kcat [3]: 209 ± 25.6 s⁻¹ | kcat/Km [3]: 4e+06 ± 800000 M⁻¹ s⁻¹ | Km [4]: 9.5 ± 1.3 µM | Vmax [4]: 38.6 µmol/min/mg | kcat [4]: 100 ± 16.8 s⁻¹ | kcat/Km [4]: 1.06e+07 ± 1.3e+06 M⁻¹ s⁻¹

B3: SALDan V153A (Alteromonas naphthalenivorans; V153A) (protein)
chain: MKTQLIINNKFVDSESTNTFERYNQTLGEVVTSAAAASVADANNAAEVAQEAFKSWSKTGPTERRNVLLKAADILESKTAEFIDVMAKEVGSSGLWAGFNVMLAANVFREAASLATQIQGETIPTDKPGTLSMTIREPVGVILSIAPWNGPIALAARAIAYPIVCGNSVVFKASEVSPKTHSLVVEAVIEAGLPAGVLNLLSNKPEDGESIVNALIEHKAVRRINFTGSTHVGRIIAQKAGYHLKRCLLELGGKSPQVILDDANLKEAAKAATFGSFLYQGQICMTTGRIIVDESVADEFGEIFAKLASKLPVGNPCDNNDCIVGPVVTQSSAERLNGYIDDALSKGAKLITGGKANGTVMKPTILDHVTSDMEIYHEESFGPLICMVRVKNADEALHTANDTPYGLSAAVFGKDVNRALQMAKDINAGHCHVNGTTVQNDAQAPYGGTKDSGWGRFDGRAVIDEFTELKWITIEPIVQDYPF
Km [5]: 44.9 ± 4.2 µM | Vmax [5]: 103 µmol/min/mg | kcat [5]: 254 ± 21.5 s⁻¹ | kcat/Km [5]: 5.7e+06 ± 500000 M⁻¹ s⁻¹ | Km [6]: 4.6 ± 0.7 µM | Vmax [6]: 59.5 µmol/min/mg | kcat [6]: 154 ± 20.4 s⁻¹ | kcat/Km [6]: 3.34e+07 ± 4.7e+06 M⁻¹ s⁻¹
